Assay results: FireProtDB (doi:10.1016/s0301-4622(00)00161-7)
“And” between values parts separate entries of the source, which are not always exact repeats. Equal values may be shown once.

Conditions: pH 7, Sodium phosphate 10 mM, whole UniProt chain shown
[1] = Homo sapiens, 20 °C, Thermal, DSC

| Protein | denaturant midpoint (higher = more stable) (Bos taurus, 20 °C, GdnHCl, Fluorescence) | denaturant midpoint (higher = more stable) (Bos taurus, 20 °C, Urea, Fluorescence) | denaturant midpoint (higher = more stable) (Homo sapiens, 20 °C, GdnHCl, CD) | denaturant midpoint (higher = more stable) (Homo sapiens, 20 °C, GdnHCl, Fluorescence) | heat capacity change of unfolding [1] | unfolding free energy [1] | denaturant midpoint (higher = more stable) (Homo sapiens, 20 °C, Urea, CD) | denaturant midpoint (higher = more stable) (Homo sapiens, 20 °C, Urea, Fluorescence) | heat capacity change of unfolding (Homo sapiens, Thermal, DSC) | unfolding enthalpy (calorimetric) (Homo sapiens, Thermal, DSC) |
| --- | --- | --- | --- | --- | --- | --- | --- | --- | --- | --- |
| Gamma-crystallin S wild type, P06504 (protein) MSKAGTKITFFEDKNFQGRHYDSDCDCADFHMYLSRCNSIRVEGGTWAVYERPNFAGYMYILPRGEYPEYQHWMGLNDRLSSCRAVHLSSGGQYKLQIFEKGDFNGQMHETTEDCPSIMEQFHMREVHSCKVLEGAWIFYELPNYRGRQYLLDKKEYRKPVDWGAASPAVQSFRRIVE | 2.1 M and 1.8 M | 7 M and 6.6 M | – | – | – | – | – | – | – | – |
| Gamma-crystallin S wild type, P22914 (protein) MSKTGTKITFYEDKNFQGRRYDCDCDCADFHTYLSRCNSIKVEGGTWAVYERPNFAGYMYILPQGEYPEYQRWMGLNDRLSSCRAVHLPSGGQYKIQIFEKGDFSGQMYETTEDCPSIMEQFHMREIHSCKVLEGVWIFYELPNYRGRQYLLDKKEYRKPIDWGAASPAVQSFRRIVE | – | – | 1.9 M | 2.6 M and 2.5 M | 1.79 kcal/mol/K and 0.84 kcal/mol/K and 1.08 kcal/mol/K | 20.1 kcal/mol and 10 kcal/mol and 11.5 kcal/mol | 7 M | 8 M and 7.6 M | 1.79 kcal/mol/K and 0.84 kcal/mol/K and 1.08 kcal/mol/K | 179 kcal/mol and 90.8 kcal/mol and 103 kcal/mol |
